Values belong to the substance of their own block, whether it stands above or below them.
Key:
[1] = target: human trophoblast cell-surface antigen (Trop-2) (human) (UniProt P09758); assay: FACS on Capan-1 cells; background 5.0
[2] = target: human trophoblast cell-surface antigen (Trop-2) (human) (UniProt P09758); assay: cell-based or functional assay
[3] = target: human trophoblast cell-surface antigen (Trop-2) (human) (UniProt P09758); assay: FACS on Calu-3 cells; background 4.7
[4] = target: human trophoblast cell-surface antigen (Trop-2) (human) (UniProt P09758); assay: FACS on COLO 205 cells; background 4.5
[5] = target: human trophoblast cell-surface antigen (Trop-2) (human) (UniProt P09758); assay: FACS on BxPC-3 cells
[6] = target: human trophoblast cell-surface antigen (Trop-2) (human) (UniProt P09758); assay: FACS on Calu-3 cells
[7] = target: human trophoblast cell-surface antigen (Trop-2) (human) (UniProt P09758); assay: FACS on BxPC-3 cells; background 3.1
[8] = target: human trophoblast cell-surface antigen (Trop-2) (human) (UniProt P09758); assay: flow cytometry, surface, NCI-N87 cells
[9] = target: human trophoblast cell-surface antigen (Trop-2) (human) (UniProt P09758); assay: FACS on COLO 205 cells
[10] = target: human trophoblast cell-surface antigen (Trop-2) (human) (UniProt P09758); assay: FACS on SK-MES-1 cells
[11] = target: human trophoblast cell-surface antigen (Trop-2) (human) (UniProt P09758); assay: FACS on Capan-1 cells
[12] = target: human trophoblast cell-surface antigen (Trop-2) (human) (UniProt P09758); assay: FACS on SK-MES-1 cells; background 3.5
[13] = target: human trophoblast cell-surface antigen (Trop-2) (human) (UniProt P09758); assay: FACS on PC-3 cells; background 5.5
[14] = target: human trophoblast cell-surface antigen (Trop-2) (human) (UniProt P09758); assay: flow cytometry, surface, Capan-1 cells
[15] = target: human trophoblast cell-surface antigen (Trop-2) (human) (UniProt P09758); assay: FACS on PC-3 cells
[16] = target: CD74 (invariant chain, Ii) (human) (UniProt P04233); assay: flow cytometry, permeabilized Hs746T cells
[17] = target: CD74 (invariant chain, Ii) (human) (UniProt P04233); assay: flow cytometry, permeabilized Hep-G2 cells
[18] = target: CD74 (invariant chain, Ii) (human) (UniProt P04233); assay: flow cytometry, surface only, HuH-7 cells
[19] = target: CD74 (invariant chain, Ii) (human) (UniProt P04233); assay: flow cytometry, surface only, Hep-G2 cells
[20] = target: CD74 (invariant chain, Ii) (human) (UniProt P04233); assay: flow cytometry, surface only, Capan-1 cells
[21] = target: CD74 (invariant chain, Ii) (human) (UniProt P04233); assay: flow cytometry, permeabilized Capan-1 cells
[22] = target: CD74 (invariant chain, Ii) (human) (UniProt P04233); assay: flow cytometry, surface only, Hs746T cells
[23] = target: CD74 (invariant chain, Ii) (human) (UniProt P04233); assay: flow cytometry, surface only, NCI-N87 cells
[24] = target: CD74 (invariant chain, Ii) (human) (UniProt P04233); assay: flow cytometry, permeabilized HuH-7 cells
[25] = target: CD74 (invariant chain, Ii) (human) (UniProt P04233); assay: flow cytometry, permeabilized A-375 cells
[26] = target: CD74 (invariant chain, Ii) (human) (UniProt P04233); assay: flow cytometry, permeabilized Raji cells
[27] = target: CD74 (invariant chain, Ii) (human) (UniProt P04233); assay: flow cytometry, permeabilized NCI-N87 cells
[28] = target: CD74 (invariant chain, Ii) (human) (UniProt P04233); assay: flow cytometry, surface only, A-375 cells
[29] = target: CD74 (invariant chain, Ii) (human) (UniProt P04233); assay: flow cytometry, surface only, Raji cells

Sequence of CD74 (invariant chain, Ii) (human) (P04233 whole entry, change not shown): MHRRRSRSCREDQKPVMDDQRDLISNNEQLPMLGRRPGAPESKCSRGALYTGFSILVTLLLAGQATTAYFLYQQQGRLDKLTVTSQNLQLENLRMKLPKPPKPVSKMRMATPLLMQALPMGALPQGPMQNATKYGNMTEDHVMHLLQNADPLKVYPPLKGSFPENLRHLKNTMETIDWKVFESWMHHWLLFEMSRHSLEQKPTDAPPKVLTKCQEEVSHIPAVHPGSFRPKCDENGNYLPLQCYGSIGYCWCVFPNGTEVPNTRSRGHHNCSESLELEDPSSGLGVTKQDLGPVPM
Sequence of human trophoblast cell-surface antigen (Trop-2) (human) (P09758 27-323): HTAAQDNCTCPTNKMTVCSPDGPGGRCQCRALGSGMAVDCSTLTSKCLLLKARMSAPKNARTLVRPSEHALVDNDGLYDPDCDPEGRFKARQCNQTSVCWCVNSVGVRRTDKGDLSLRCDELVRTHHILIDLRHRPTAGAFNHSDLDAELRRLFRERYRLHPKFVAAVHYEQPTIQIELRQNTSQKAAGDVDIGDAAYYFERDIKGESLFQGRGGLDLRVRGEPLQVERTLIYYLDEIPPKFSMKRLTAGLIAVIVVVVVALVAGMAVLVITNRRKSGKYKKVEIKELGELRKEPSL

median fluorescence [1]: 100 | ADCC, specific lysis of BxPC-3 target cells by PBMCs (effector to target 100:1), antibody at 33.3 nM [2]: 8.5% | median fluorescence [3]: 282 | median fluorescence [4]: 142 | percent positive [5]: 98.3% | percent positive [6]: 99.6% | median fluorescence [7]: 26.4 | MFI (surface) [8]: 795 | percent positive [9]: 99.5% | percent positive [10]: 91.2% | percent positive [11]: 94.2% | median fluorescence [12]: 44 | median fluorescence [13]: 46.2 | MFI (surface) [14]: 237 | percent positive [15]: 73.6%
Substance: humanized RS7 IgG (hRS7), anti-Trop-2 (antibody)

MFI ratio hLL1:bkgd (surface and cytoplasmic) [16]: 28.8 | MFI ratio hLL1:bkgd (surface and cytoplasmic) [17]: 31.2 | MFI ratio hLL1:bkgd (surface) [18]: 1.6 | MFI ratio hLL1:bkgd (surface) [19]: 1.5 | MFI ratio hLL1:bkgd (surface) [20]: 1.8 | MFI ratio hLL1:bkgd (surface and cytoplasmic) [21]: 49.6 | MFI ratio hLL1:bkgd (surface) [22]: 2.1 | MFI ratio hLL1:bkgd (surface) [23]: 1.3 | MFI ratio hLL1:bkgd (surface and cytoplasmic) [24]: 28.5 | MFI ratio hLL1:bkgd (surface and cytoplasmic) [25]: 30.8 | MFI ratio hLL1:bkgd (surface and cytoplasmic) [26]: 28.6 | MFI ratio hLL1:bkgd (surface and cytoplasmic) [27]: 36.7 | MFI ratio hLL1:bkgd (surface) [28]: 5.3 | MFI ratio hLL1:bkgd (surface) [29]: 19.6
Substance: milatuzumab (hLL1), humanized anti-CD74 IgG1 (antibody)

From US20160296633A1
